The values that follow come from patent US20190167771, “CONTROL ANGIOGENESIS BY REGULATING PHOSPHORYLATION OF SERYL-tRNA SYNTHETASE (SerRS)” (The Scripps Research Institute, published 2019).

The target in the series is SerRS (seryl-tRNA synthetase) wild type (Homo sapiens, UniProt P49591 SEQ:1-514). Put plainly: EMSA; 20 mM Tris pH 8.0, 60 mM KCl, 5 mM MgCl2, poly(dG-dC), room temperature. Particulars: tags: C-terminal His6; label: 5'-32P. On the procedure:
The 27 bp DNA oligonucleotides corresponding to SerRS binding site on the VEGFA promoter (5′ GGCGGGGCGGAGCCATGCGCCCCCCCC 3′ (SEQ ID NO: 36)) were synthesized, annealed, and [³²P]-labeled at the 5′ end by T4 DNA kinase (New England Biolabs, Ipswich, Mass., USA) before desalting using a sephadex G-25 spin column (GE Healthcare, Pittsburgh, Pa., USA). The labeled oligonucleotides (0.08 pmol) were incubated with recombinant SerRS at indicated concentrations in binding buffer (20 mM Tris-HCl, pH 8.0, 60 mM KCl, 5 mM MgCl₂, 0.1 mg ml⁻¹ BSA, 10 ng μl⁻¹ poly (dG-dC), 1 mM DTT) for 30 min at room temperature. The samples were loaded to 5% native polyacrylamide gel (17.5 cm in length) and underwent electrophoresis at 250 V in running buffer (25 mM Tris, pH 8.3, 190 mM glycine). Afterwards, the gel was dried and examined by autoradiography.
The effect of hypoxia on the interaction of SerRS with VEGFA promoter was also explored. As detected by electrophoresis mobility shift assay (EMSA), the direct binding between SerRS and a ³²P-labeled 27-bp DNA fragment previously identified as the SerRS binding site from the VEGFA promoter in Shi et al. 2014 was attenuated by the phosphor-mimicking mutant SerRS^{S101D/S241D} (FIG. 2E).
(In general: Mobility shift assays separate free from complexed probe on a gel.)

SerRS (seryl-tRNA synthetase) wild type, sequence (P49591 whole entry): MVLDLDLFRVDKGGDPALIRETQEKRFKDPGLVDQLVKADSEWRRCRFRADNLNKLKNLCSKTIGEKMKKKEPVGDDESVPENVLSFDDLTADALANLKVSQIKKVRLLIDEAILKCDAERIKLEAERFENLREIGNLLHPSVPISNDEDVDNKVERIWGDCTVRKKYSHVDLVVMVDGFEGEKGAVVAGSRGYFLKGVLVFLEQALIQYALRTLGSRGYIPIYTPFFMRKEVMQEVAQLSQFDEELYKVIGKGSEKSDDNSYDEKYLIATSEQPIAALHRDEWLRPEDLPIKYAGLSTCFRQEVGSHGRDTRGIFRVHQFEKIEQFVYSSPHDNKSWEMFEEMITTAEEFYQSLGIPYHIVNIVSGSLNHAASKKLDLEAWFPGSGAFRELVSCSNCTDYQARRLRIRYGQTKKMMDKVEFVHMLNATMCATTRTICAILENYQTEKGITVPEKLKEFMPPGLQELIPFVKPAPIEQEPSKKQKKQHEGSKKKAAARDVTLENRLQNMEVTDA

B1: VEGFA promoter 27-bp SerRS site (dsDNA)
DNA 1: GGCGGGGCGGAGCCATGCGCCCCCCCC
DNA 2: GGGGGGGGCGCATGGCTCCGCCCCGCC
On to B1, for which the binding result is given as “binds”.
